# Experimental data reported in US20250340902A1, “GENE THERAPY FOR BVES-RELATED DISORDERS” (OHIO STATE INNOVATION FOUNDATION, priority 2022, published 2025).
# How the values were obtained:
# [1] = molecular target: Striated muscle-specific serine/threonine-protein kinase (Mus musculus) (UniProt Q62407); experiment: anti-HA co-IP from muscle, MS; CTRL 5
# [2] = molecular target: Spectrin beta chain, non-erythrocytic 1 (Mus musculus) (UniProt Q62261); experiment: anti-HA co-IP from muscle, MS; CTRL 5
# [3] = molecular target: Phosphorylase b kinase regulatory subunit alpha, skeletal muscle isoform (Mus musculus) (UniProt P18826); experiment: anti-HA co-IP from muscle, MS; CTRL 5
# Chain of Phosphorylase b kinase regulatory subunit alpha, skeletal muscle isoform (Mus musculus) (P18826 whole entry, canonical isoform): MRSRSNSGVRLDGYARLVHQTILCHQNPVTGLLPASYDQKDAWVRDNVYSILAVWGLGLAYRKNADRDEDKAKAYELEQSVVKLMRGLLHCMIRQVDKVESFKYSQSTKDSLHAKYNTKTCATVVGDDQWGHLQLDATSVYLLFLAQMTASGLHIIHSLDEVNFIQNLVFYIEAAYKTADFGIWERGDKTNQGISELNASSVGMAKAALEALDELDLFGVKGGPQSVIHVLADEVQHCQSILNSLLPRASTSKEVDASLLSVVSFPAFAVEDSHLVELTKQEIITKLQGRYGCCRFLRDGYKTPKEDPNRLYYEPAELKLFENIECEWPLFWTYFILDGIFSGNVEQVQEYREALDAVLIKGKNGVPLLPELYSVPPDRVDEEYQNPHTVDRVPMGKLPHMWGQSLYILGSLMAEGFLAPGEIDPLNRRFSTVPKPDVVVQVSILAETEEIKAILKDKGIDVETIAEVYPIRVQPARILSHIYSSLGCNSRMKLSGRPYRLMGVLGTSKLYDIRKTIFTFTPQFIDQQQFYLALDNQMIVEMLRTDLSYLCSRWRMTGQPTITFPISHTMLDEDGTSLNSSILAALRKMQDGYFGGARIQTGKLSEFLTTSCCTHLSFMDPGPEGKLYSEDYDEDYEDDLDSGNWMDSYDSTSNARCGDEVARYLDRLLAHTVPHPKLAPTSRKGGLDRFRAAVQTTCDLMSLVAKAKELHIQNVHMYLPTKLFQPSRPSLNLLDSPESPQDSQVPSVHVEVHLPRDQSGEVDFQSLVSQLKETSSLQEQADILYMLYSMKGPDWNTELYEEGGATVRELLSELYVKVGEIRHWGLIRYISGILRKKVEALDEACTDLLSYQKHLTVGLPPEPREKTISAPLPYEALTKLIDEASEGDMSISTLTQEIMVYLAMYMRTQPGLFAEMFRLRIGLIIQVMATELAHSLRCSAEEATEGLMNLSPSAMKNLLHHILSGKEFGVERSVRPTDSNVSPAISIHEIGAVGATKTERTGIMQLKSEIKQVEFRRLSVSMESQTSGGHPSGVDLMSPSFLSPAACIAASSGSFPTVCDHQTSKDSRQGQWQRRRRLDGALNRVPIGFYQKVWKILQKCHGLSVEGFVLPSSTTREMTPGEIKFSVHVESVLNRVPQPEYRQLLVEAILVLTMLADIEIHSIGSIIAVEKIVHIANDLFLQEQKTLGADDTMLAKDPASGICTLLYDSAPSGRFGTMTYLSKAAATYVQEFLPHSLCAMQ
# [4] = molecular target: Spectrin alpha chain, non-erythrocytic 1 (Mus musculus) (UniProt P16546); experiment: anti-HA co-IP from muscle, MS; CTRL 5
# Biglycan (Mus musculus) = Biglycan (Mus musculus) (UniProt P28653); experiment: anti-HA co-IP from muscle, MS; CTRL 5
# [5] = molecular target: Annexin A6 (Mus musculus) (UniProt P14824); experiment: anti-HA co-IP from muscle, MS; CTRL 5
# [6] = molecular target: Eukaryotic translation initiation factor 5B (Mus musculus) (UniProt Q05D44); experiment: anti-HA co-IP from muscle, MS; CTRL 5
# [7] = molecular target: Alpha-1-syntrophin (Mus musculus) (UniProt Q61234); experiment: anti-HA co-IP from muscle, MS; CTRL 1
# [8] = molecular target: Protein-cysteine N-palmitoyltransferase HHAT-like protein (Mus musculus) (UniProt Q9D1G3); experiment: anti-HA co-IP from muscle, MS; CTRL 1
# [9] = molecular target: Caveolae-associated protein 2 (Mus musculus) (UniProt Q63918); experiment: anti-HA co-IP from muscle, MS; CTRL 1
# [10] = molecular target: Cullin-associated NEDD8-dissociated protein 2 (Mus musculus) (UniProt Q6ZQ73); experiment: anti-HA co-IP from muscle, MS; CTRL 1
# Chain of Cullin-associated NEDD8-dissociated protein 2 (Mus musculus) (Q6ZQ73 2-1235 limits assumed): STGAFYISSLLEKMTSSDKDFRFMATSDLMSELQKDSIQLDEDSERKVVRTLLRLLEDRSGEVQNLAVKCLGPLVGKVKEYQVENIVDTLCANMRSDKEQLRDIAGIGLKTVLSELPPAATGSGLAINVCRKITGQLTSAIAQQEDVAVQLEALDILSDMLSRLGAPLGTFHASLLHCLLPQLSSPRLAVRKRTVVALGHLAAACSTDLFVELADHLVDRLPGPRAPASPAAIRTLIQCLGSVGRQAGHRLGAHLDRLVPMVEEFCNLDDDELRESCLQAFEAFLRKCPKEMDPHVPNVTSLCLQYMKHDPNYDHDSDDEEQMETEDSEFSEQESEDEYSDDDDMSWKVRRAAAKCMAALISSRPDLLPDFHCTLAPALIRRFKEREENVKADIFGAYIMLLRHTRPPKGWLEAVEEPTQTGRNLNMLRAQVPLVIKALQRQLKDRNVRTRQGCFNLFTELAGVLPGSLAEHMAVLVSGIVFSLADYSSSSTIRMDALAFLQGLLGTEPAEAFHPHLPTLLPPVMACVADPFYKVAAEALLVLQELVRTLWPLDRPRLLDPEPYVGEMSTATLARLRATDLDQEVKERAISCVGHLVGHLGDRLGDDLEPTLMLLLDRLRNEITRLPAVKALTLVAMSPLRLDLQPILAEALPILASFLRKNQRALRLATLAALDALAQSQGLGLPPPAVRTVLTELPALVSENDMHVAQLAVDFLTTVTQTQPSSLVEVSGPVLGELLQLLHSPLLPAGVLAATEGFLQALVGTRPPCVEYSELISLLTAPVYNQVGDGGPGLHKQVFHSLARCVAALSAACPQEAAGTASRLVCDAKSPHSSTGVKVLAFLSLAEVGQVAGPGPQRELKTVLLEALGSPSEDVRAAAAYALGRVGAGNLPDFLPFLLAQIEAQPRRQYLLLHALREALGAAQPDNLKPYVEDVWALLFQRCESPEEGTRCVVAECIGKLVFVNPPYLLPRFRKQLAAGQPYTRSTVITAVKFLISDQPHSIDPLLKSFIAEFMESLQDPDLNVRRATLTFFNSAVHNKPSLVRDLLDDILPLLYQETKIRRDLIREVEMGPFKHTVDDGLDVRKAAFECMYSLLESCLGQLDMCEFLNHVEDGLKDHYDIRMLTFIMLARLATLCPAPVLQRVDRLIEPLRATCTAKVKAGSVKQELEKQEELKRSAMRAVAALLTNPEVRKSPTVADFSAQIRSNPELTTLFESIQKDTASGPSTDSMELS
# Vinculin (Mus musculus) = Vinculin (Mus musculus) (UniProt Q64727); experiment: anti-HA co-IP from muscle, MS; CTRL 1
# [11] = molecular target: Unconventional myosin-Ic (Mus musculus) (UniProt Q9WTI7); experiment: anti-HA co-IP from muscle, MS; CTRL 1
# [12] = molecular target: Collagen alpha-2(IV) chain (Mus musculus) (UniProt P08122); experiment: anti-HA co-IP from muscle, MS; CTRL 1
# [13] = molecular target: Caveolin-1 (Mus musculus) (UniProt P49817); experiment: anti-HA co-IP from muscle, MS; CTRL 1
# [14] = molecular target: Caveolae-associated protein 3 (Mus musculus) (UniProt Q91VJ2); experiment: anti-HA co-IP from muscle, MS; CTRL 1
# [15] = molecular target: Glypican-1 (Mus musculus) (UniProt Q9QZF2); experiment: anti-HA co-IP from muscle, MS; CTRL 1
# [16] = molecular target: Alpha-sarcoglycan (Mus musculus) (UniProt P82350); experiment: anti-HA co-IP from muscle, MS; CTRL 1
# [17] = molecular target: Ribosomal protein S6 kinase alpha-3 (Mus musculus) (UniProt P18654); experiment: anti-HA co-IP from muscle, MS; CTRL 1
# [18] = molecular target: Poly(rC)-binding protein 2 (Mus musculus) (UniProt Q61990); experiment: anti-HA co-IP from muscle, MS; CTRL 2
# [19] = molecular target: Tripartite motif-containing protein 72 (Mus musculus) (UniProt Q1XH17); experiment: anti-HA co-IP from muscle, MS; CTRL 2
# [20] = molecular target: Spectrin beta chain, erythrocytic (Mus musculus) (UniProt P15508); experiment: anti-HA co-IP from muscle, MS; CTRL 2
# [21] = molecular target: Voltage-dependent L-type calcium channel subunit beta-1 (Mus musculus) (UniProt Q8R3Z5); experiment: anti-HA co-IP from muscle, MS; CTRL 2
# Chain of Voltage-dependent L-type calcium channel subunit beta-1 (Mus musculus) (Q8R3Z5 whole entry): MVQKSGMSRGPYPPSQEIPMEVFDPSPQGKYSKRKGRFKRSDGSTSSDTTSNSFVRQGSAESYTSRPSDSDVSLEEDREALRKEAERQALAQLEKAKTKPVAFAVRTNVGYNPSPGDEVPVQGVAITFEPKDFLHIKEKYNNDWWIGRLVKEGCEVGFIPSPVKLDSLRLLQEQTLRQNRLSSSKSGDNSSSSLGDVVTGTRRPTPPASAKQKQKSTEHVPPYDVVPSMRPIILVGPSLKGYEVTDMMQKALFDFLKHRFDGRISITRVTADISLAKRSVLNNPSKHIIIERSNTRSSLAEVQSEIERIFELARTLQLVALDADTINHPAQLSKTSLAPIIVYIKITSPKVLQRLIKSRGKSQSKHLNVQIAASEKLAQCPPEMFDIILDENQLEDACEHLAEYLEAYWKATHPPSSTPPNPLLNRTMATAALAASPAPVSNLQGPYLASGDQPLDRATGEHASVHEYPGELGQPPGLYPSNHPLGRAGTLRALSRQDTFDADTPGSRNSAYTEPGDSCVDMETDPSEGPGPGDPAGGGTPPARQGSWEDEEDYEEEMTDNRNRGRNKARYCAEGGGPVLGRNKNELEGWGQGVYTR
# [22] = molecular target: Succinate--CoA ligase [ADP-forming] subunit beta, mitochondrial (Mus musculus) (UniProt Q9Z2I9); experiment: anti-HA co-IP from muscle, MS; CTRL 2
# [23] = molecular target: Caveolae-associated protein 1 (Mus musculus) (UniProt O54724); experiment: anti-HA co-IP from muscle, MS; CTRL 2
# [24] = molecular target: Calcium/calmodulin-dependent protein kinase type II subunit alpha (Mus musculus) (UniProt P11798); experiment: anti-HA co-IP from muscle, MS; CTRL 2
# Chain of Calcium/calmodulin-dependent protein kinase type II subunit alpha (Mus musculus) (P11798 whole entry): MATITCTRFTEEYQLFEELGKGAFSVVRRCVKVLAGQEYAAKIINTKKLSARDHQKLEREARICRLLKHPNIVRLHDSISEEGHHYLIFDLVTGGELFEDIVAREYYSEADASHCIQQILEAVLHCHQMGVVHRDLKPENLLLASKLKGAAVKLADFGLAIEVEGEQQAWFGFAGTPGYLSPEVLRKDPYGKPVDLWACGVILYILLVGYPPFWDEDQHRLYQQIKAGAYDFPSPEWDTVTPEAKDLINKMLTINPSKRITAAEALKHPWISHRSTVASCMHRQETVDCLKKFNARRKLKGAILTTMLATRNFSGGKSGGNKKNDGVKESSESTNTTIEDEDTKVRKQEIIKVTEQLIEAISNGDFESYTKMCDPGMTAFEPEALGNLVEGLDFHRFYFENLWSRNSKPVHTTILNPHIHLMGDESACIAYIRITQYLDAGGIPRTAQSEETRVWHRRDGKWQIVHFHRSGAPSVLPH
# [25] = molecular target: Very-long-chain enoyl-CoA reductase (Mus musculus) (UniProt Q9CY27); experiment: anti-HA co-IP from muscle, MS; CTRL 2
# [26] = molecular target: Trimeric intracellular cation channel type A (Mus musculus) (UniProt Q3TMP8); experiment: anti-HA co-IP from muscle, MS; CTRL 2
# Chain of Trimeric intracellular cation channel type A (Mus musculus) (Q3TMP8 whole entry): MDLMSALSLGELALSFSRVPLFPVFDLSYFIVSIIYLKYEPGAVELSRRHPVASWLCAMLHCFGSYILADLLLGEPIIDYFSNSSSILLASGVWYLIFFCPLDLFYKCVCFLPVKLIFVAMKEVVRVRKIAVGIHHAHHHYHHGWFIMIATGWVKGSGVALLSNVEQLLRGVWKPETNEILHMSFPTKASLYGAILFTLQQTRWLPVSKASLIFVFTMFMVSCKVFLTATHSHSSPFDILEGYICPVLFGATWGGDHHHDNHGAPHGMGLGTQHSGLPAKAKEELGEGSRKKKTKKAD
# [27] = molecular target: Serine/arginine repetitive matrix protein 2 (Mus musculus) (UniProt Q8BTI8); experiment: anti-HA co-IP from muscle, MS; CTRL 2
# [28] = molecular target: PDZ and LIM domain protein 5 (Mus musculus) (UniProt Q8CI51); experiment: anti-HA co-IP from muscle, MS; CTRL 2
# [29] = molecular target: Phosphorylase b kinase gamma catalytic chain, skeletal muscle/heart isoform (Mus musculus) (UniProt P07934); experiment: anti-HA co-IP from muscle, MS; CTRL 2
# [30] = molecular target: T-complex protein 1 subunit beta (Mus musculus) (UniProt P80314); experiment: anti-HA co-IP from muscle, MS; CTRL 2
# [31] = molecular target: F-box only protein 40 (Mus musculus) (UniProt P62932); experiment: anti-HA co-IP from muscle, MS; CTRL 0
# Chain of F-box only protein 40 (Mus musculus) (P62932 whole entry): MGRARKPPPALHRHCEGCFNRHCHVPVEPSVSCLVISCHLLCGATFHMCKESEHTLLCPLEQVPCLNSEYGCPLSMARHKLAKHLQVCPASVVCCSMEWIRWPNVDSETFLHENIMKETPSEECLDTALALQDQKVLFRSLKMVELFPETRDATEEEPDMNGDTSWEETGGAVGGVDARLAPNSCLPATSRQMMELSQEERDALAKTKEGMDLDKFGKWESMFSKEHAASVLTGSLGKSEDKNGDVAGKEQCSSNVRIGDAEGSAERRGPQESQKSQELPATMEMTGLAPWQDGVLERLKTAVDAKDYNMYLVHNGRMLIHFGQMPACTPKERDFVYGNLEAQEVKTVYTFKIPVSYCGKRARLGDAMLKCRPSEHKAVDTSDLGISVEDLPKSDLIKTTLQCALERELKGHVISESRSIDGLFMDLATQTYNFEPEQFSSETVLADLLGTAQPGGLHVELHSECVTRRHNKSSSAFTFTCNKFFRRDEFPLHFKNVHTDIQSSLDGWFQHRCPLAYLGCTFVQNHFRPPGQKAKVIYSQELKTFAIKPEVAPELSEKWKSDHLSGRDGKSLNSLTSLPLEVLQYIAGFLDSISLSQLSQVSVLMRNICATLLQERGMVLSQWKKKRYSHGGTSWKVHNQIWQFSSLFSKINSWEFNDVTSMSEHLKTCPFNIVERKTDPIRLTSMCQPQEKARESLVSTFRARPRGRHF
# [32] = molecular target: Obg-like ATPase 1 (Mus musculus) (UniProt Q9CZ30); experiment: anti-HA co-IP from muscle, MS; CTRL 0
# Chain of Obg-like ATPase 1 (Mus musculus) (Q9CZ30 whole entry): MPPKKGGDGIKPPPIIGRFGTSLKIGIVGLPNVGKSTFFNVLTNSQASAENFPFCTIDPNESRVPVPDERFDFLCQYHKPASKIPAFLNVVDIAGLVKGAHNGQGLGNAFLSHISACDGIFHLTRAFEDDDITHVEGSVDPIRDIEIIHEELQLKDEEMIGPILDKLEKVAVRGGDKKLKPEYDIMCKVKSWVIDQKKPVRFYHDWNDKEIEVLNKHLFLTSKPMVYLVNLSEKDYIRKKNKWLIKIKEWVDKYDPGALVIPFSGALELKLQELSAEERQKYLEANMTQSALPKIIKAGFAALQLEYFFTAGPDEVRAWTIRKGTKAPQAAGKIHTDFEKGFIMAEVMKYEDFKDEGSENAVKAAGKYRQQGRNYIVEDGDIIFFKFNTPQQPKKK
# [33] = molecular target: Actin-binding LIM protein 2 (Mus musculus) (UniProt Q8BL65); experiment: anti-HA co-IP from muscle, MS; CTRL 0
# [34] = molecular target: Heterogeneous nuclear ribonucleoprotein H2 (Mus musculus) (UniProt P70333); experiment: anti-HA co-IP from muscle, MS; CTRL 0
# [35] = molecular target: 40S ribosomal protein S27 (Mus musculus) (UniProt Q6ZWU9); experiment: anti-HA co-IP from muscle, MS; CTRL 0
# [36] = molecular target: SUN domain-containing protein 2 (Mus musculus) (UniProt Q8BJS4); experiment: anti-HA co-IP from muscle, MS; CTRL 0
substance,measurement,setting,value
human BVES fused with 3xHA tag (from UniProt Q8NE79 1-360),AAV9-BVES-HA (IP-MS count),[1],16
same,AAV9-BVES-HA (IP-MS count),[2],19
same,AAV9-BVES-HA (IP-MS count),[3],23
same,AAV9-BVES-HA (IP-MS count),[4],24
same,AAV9-BVES-HA (IP-MS count),Biglycan (Mus musculus),16
same,AAV9-BVES-HA (IP-MS count),[5],17
same,AAV9-BVES-HA (IP-MS count),[6],14
same,AAV9-BVES-HA (IP-MS count),[7],11
same,AAV9-BVES-HA (IP-MS count),[8],5
same,AAV9-BVES-HA (IP-MS count),[9],12
same,AAV9-BVES-HA (IP-MS count),[10],16
same,AAV9-BVES-HA (IP-MS count),Vinculin (Mus musculus),5
same,AAV9-BVES-HA (IP-MS count),[11],7
same,AAV9-BVES-HA (IP-MS count),[12],5
same,AAV9-BVES-HA (IP-MS count),[13],8
same,AAV9-BVES-HA (IP-MS count),[14],11
same,AAV9-BVES-HA (IP-MS count),[15],11
same,AAV9-BVES-HA (IP-MS count),[16],5
same,AAV9-BVES-HA (IP-MS count),[17],20
same,AAV9-BVES-HA (IP-MS count),[18],6
same,AAV9-BVES-HA (IP-MS count),[19],6
same,AAV9-BVES-HA (IP-MS count),[20],41
same,AAV9-BVES-HA (IP-MS count),[21],6
same,AAV9-BVES-HA (IP-MS count),[22],8
same,AAV9-BVES-HA (IP-MS count),[23],19
same,AAV9-BVES-HA (IP-MS count),[24],11
same,AAV9-BVES-HA (IP-MS count),[25],9
same,AAV9-BVES-HA (IP-MS count),[26],7
same,AAV9-BVES-HA (IP-MS count),[27],11
same,AAV9-BVES-HA (IP-MS count),[28],7
same,AAV9-BVES-HA (IP-MS count),[29],6
same,AAV9-BVES-HA (IP-MS count),[30],6
same,AAV9-BVES-HA (IP-MS count),[31],2
same,AAV9-BVES-HA (IP-MS count),[32],2
same,AAV9-BVES-HA (IP-MS count),[33],2
same,AAV9-BVES-HA (IP-MS count),[34],4
same,AAV9-BVES-HA (IP-MS count),[35],2
same,AAV9-BVES-HA (IP-MS count),[36],14
